Assay results: paper PMC11893775
Non-standard residues stand in square brackets, D forms with d. No end group written: not given here.

Key:
[1] = biological target: recombinant human furin lacking the trans-membrane domain and cytosolic tail (human) (UniProt P09958)
[2] = biological target: T1, recombinant kallikrein-8 (rKLK8) (UniProt O60259)
T1 sequence: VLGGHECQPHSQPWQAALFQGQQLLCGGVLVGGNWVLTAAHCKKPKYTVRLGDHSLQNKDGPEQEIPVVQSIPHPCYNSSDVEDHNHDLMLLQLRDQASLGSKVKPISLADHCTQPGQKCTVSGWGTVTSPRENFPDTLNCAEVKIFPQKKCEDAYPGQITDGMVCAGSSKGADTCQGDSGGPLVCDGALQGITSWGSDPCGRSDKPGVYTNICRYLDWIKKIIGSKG

Sequence of UniProt P09958 (P09958 108-715): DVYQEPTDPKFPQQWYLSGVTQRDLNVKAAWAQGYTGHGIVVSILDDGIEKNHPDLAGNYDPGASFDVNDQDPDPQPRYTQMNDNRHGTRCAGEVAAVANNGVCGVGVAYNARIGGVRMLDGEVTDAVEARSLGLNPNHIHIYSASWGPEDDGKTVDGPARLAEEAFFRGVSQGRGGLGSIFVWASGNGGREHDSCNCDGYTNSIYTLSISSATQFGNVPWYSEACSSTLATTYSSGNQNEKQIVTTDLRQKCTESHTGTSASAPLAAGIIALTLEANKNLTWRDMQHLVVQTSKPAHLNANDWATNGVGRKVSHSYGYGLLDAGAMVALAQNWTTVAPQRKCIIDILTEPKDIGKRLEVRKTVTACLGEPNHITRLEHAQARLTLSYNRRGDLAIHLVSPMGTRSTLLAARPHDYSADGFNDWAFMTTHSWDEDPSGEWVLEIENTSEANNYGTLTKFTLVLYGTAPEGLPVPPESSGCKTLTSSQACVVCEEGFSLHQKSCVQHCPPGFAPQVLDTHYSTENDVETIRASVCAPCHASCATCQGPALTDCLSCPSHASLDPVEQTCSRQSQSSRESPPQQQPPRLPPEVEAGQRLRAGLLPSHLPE

## [dR][dR][dR][dR][dR][dR] [hexa-D-arginine]
[1]
  IC50 of D6R for inhibition of the in vitro cleavage of the fluorogenic substrate Boc-RVRR-AMC by rFurin: 780 nM
[2]
  IC50 of D6R for inhibition of the in vitro cleavage of the fluorogenic substrate Boc-VPR-AMC by rKLK8: < 25000 nM
